Data on five molecules can be found in article PMC1906764.

The target of one data set is T1, PPT1 F85del, P50897.
T1 chain: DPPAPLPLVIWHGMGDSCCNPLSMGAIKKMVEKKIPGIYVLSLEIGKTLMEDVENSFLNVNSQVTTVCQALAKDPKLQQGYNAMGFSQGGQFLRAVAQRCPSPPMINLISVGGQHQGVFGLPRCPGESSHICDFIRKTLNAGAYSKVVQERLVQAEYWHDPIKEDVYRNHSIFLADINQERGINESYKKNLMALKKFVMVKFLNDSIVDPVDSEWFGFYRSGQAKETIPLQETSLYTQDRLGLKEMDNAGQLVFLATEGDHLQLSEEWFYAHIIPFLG
In words: GFP pull-down (co-immunoprecipitation with anti-GFP-agarose beads, anti-PPT1 immunoblot, quantified). As to conditions: chain shown with the change; COS-1 cells, lysed 48 h post-transfection; single experiment; parent: est. 100; read off a plot. Background: Immunoblotting shows a protein as a band on a membrane.

Data set [1] is described as follows: immunofluorescence, LAMP-1 co-staining, transfected cells. The settings on record: glycan lost; control: wild type.
A short description of data set [2]: 35S-Cys pulse-chase, immunoprecipitation from COS-1 media. As to conditions: glycan lost; control: wild type.
Data set [3] can be described thus: 4-MU-6S-Palm-βGlc fluorometric assay, COS-1 lysates. The settings on record: glycan lost; control: wild type.

B1: palmitoyl protein thioesterase 1 (PPT1), wild type, P50897 F85del (protein)
chain: DPPAPLPLVIWHGMGDSCCNPLSMGAIKKMVEKKIPGIYVLSLEIGKTLMEDVENSFLNVNSQVTTVCQALAKDPKLQQGYNAMGFSQGGQFLRAVAQRCPSPPMINLISVGGQHQGVFGLPRCPGESSHICDFIRKTLNAGAYSKVVQERLVQAEYWHDPIKEDVYRNHSIFLADINQERGINESYKKNLMALKKFVMVKFLNDSIVDPVDSEWFGFYRSGQAKETIPLQETSLYTQDRLGLKEMDNAGQLVFLATEGDHLQLSEEWFYAHIIPFLG
Turning to B1, the percent of parent in the data set with PPT1 F85del, P50897 is 150 % of WT.

B2: palmitoyl protein thioesterase 1 (PPT1): S214A (protein)
parent chain: MASPGCLWLLAVALLPWTCASRALQHLDPPAPLPLVIWHGMGDSCCNPLSMGAIKKMVEKKIPGIYVLSLEIGKTLMEDVENSFFLNVNSQVTTVCQALAKDPKLQQGYNAMGFSQGGQFLRAVAQRCPSPPMINLISVGGQHQGVFGLPRCPGESSHICDFIRKTLNAGAYSKVVQERLVQAEYWHDPIKEDVYRNHSIFLADINQERGINESYKKNLMALKKFVMVKFLNDSIVDPVDSEWFGFYRSGQAKETIPLQETSLYTQDRLGLKEMDNAGQLVFLATEGDHLQLSEEWFYAHIIPFLG
In the case of B2, the localisation_or_trafficking entry in data set [1] was “no change”. Further, in data set [2], the expression_or_secretion entry is recorded as “no change”. Moreover, in data set [3], the enzymatic activity, percent of wt was determined as 31%.

B3: palmitoyl protein thioesterase 1 (PPT1): S234A (protein)
parent chain: MASPGCLWLLAVALLPWTCASRALQHLDPPAPLPLVIWHGMGDSCCNPLSMGAIKKMVEKKIPGIYVLSLEIGKTLMEDVENSFFLNVNSQVTTVCQALAKDPKLQQGYNAMGFSQGGQFLRAVAQRCPSPPMINLISVGGQHQGVFGLPRCPGESSHICDFIRKTLNAGAYSKVVQERLVQAEYWHDPIKEDVYRNHSIFLADINQERGINESYKKNLMALKKFVMVKFLNDSIVDPVDSEWFGFYRSGQAKETIPLQETSLYTQDRLGLKEMDNAGQLVFLATEGDHLQLSEEWFYAHIIPFLG
Regarding B3, the localisation_or_trafficking entry in data set [1] is listed as “decreases”. In addition, in data set [2], the expression_or_secretion entry was “decreases”.

B4: palmitoyl protein thioesterase 1 (PPT1): S199A + S214A (protein)
parent chain: MASPGCLWLLAVALLPWTCASRALQHLDPPAPLPLVIWHGMGDSCCNPLSMGAIKKMVEKKIPGIYVLSLEIGKTLMEDVENSFFLNVNSQVTTVCQALAKDPKLQQGYNAMGFSQGGQFLRAVAQRCPSPPMINLISVGGQHQGVFGLPRCPGESSHICDFIRKTLNAGAYSKVVQERLVQAEYWHDPIKEDVYRNHSIFLADINQERGINESYKKNLMALKKFVMVKFLNDSIVDPVDSEWFGFYRSGQAKETIPLQETSLYTQDRLGLKEMDNAGQLVFLATEGDHLQLSEEWFYAHIIPFLG
Turning to B4, the expression_or_secretion result in data set [2] was “abolishes”. Also, in data set [3], the “enzymatic_activity, percent_of_wt” value is given as “decreases”.

B5: palmitoyl protein thioesterase 1 (PPT1): S199A (protein)
parent chain: MASPGCLWLLAVALLPWTCASRALQHLDPPAPLPLVIWHGMGDSCCNPLSMGAIKKMVEKKIPGIYVLSLEIGKTLMEDVENSFFLNVNSQVTTVCQALAKDPKLQQGYNAMGFSQGGQFLRAVAQRCPSPPMINLISVGGQHQGVFGLPRCPGESSHICDFIRKTLNAGAYSKVVQERLVQAEYWHDPIKEDVYRNHSIFLADINQERGINESYKKNLMALKKFVMVKFLNDSIVDPVDSEWFGFYRSGQAKETIPLQETSLYTQDRLGLKEMDNAGQLVFLATEGDHLQLSEEWFYAHIIPFLG
Consider B5, for which the localisation_or_trafficking result in data set [1] is on record as “decreases”. For the same molecule, the expression_or_secretion result in data set [2] is “abolishes”.
